Measured values taken from article PMC11739670 (2024).

Key:
[1] = biological target: HLA-A*24:02 peptide-MHC class I (biotinylated pMHCI) (human | , biotin on the Avi-tag (BirA ligase)); experiment: SPR; average over HLA-A24 peptides, 25°C
[2] = biological target: HLA-A*01:01 peptide-MHC class I (biotinylated pMHCI) (human | , biotin on the Avi-tag (BirA ligase)); experiment: SPR; average over HLA-A1 peptides, 25°C
[3] = biological target: HLA-A*03:01 peptide-MHC class I (biotinylated pMHCI) (human | , biotin on the Avi-tag (BirA ligase)); experiment: SPR; average over HLA-A3 peptides, 25°C

Kd [1]: 214 µM | Kd [2]: 120 µM | Kd [3]: 133 µM
B1: soluble human CD8αβ-Fc heterodimer (Fc fusion)
chain 1: not shown
chain 2: LQQTPAYIKVQTNKMVMLSCEAKISLSNMRIYWLRQRQAPSSDSHHEFLALWDSAKGTIHGEEVEQEKIAVFRDASRFILNLTSVKPEDSGIYFCMIVGSPELTFGKGTQLSVVDFLPTTAQPTKKSTLKKRVCRLPRPETQKGPLCSP
